Source: US20250000988A1, “EPHA2 BICYCLIC PEPTIDE LIGAND AND CONJUGATE THEREOF” (priority 2021, published 2025)
Like-named read-outs stand apart in the source and are kept apart here. Numbered stars: 1 amine (or outer) side, 2 acyl side, 3 side chain; on linkers, the order of the positions; unused ones are H or OH. Bridge positions count the residues as written; N and C are the ends. Square brackets hold non-standard residues; d marks the D form. Peptide text beside a SMILES is read from it. I, II: the chains in the order shown. * marks the point of attachment. X3 = O=C(CCCC(=O)NCCC(=O)[*:1])NCCOCCOCCN(CC(=O)[*:2])CC(=O)[*:3]; TATA = O=C(CC[*:1])N1CN(C(=O)CC[*:2])CN(C(=O)CC[*:3])C1; Dolaproine = CO[C@@H]([C@@H]1CCCN1)[C@@H](C)C(=O)O; Dil = CC[C@H](C)[C@H](NC)[C@@H](CC(=O)O)OC; X2 = O=C(CCCC(=O)[*:2])NCCC(=O)[*:1]; PABC = O=C(OCc1ccc(N[*:1])cc1)[*:2]; X1 = C[C@@H](N*)[C@@H](O)c1ccccc1; Hyp = O=C(O)[C@@H]1C[C@@H](O)CN1; hArg = N=C(N)NCCCC[C@H](N)C(=O)O; Cit = NC(=O)NCCC[C@H](N)C(=O)O; NMeV = CN[C@H](C(=O)O)C(C)C; hCys = N[C@@H](CCS)C(=O)O; Sar = CNCC(=O)O

Key:
[1] = tested on: PC3 cells subcutaneous transplanted tumor; assay: Mouse PC3 cells subcutaneous in vivo transplanted tumor model; design: species or system CB-17 SCID mice; conditions: 0.5 mg/kg intravenously, once a week, 35 days
Protocol: Human prostate cancer PC3 cells were placed in an RPMI-1640 medium (supplemented with 10% fetal bovine serum and 1% penicillin-streptomycin solution) and cultured at 37° C. Conventional digestion treatment with trypsin was carried out twice a week for passage. When the cell saturation was 80%-90%, and the number reached the requirement, the cells were collected, counted, and inoculated. Male CB-17 SCID mice (from Beijing Vital River Laboratory Animal Technology Co., Ltd.) were subcutaneously inoculated with 0.1 mL (2×10^6) of PC3 cells (plus matrigel, with the volume ratio of 1:1) on the right back. When the average tumor volume reached about 80-120 mm^3, grouping and administration were performed (marked as Day 0). For the solvent group, 50 mM of acetic acid and 10% sucrose solution (pH=5) were administered; and for the administration group, 0.5 mg/kg of compound 2, compound 4 or compound 13 was intravenously administered. The administration frequency was once a week and the administration cycle was 35 days (Day 0-Day 34). After grouping, the tumor diameter was measured twice a week with a vernier caliper. The formula for calculating the tumor volume was: V=0.5×a×b^2, where a and b represented the long and short diameters of the tumor, respectively. The tumor inhibitory effect of the compound was evaluated by TGI (%)= [1−(average tumor volume at the end of administration in the treatment group-average tumor volume at the beginning of administration in the treatment group)/(average tumor volume at the end of treatment in the solvent control group-average tumor volume at the beginning of treatment in the solvent control group)]×100%. The tumor growth curve and the animal body weight change curve were as shown in FIG. 1 and FIG. 2, respectively.

[2] = tested on: PC3 cells; assay: PC3 cell proliferation inhibition assay; format: cell-based, human
Protocol: PC3 cell culture conditions: RPMI-1640+10% FBS+1% penicillin-streptomycin solution. The cells were cultured in a 37° C., 5% CO2 incubator. On the first day, the PC3 cells in the exponential growth phase were collected and plated in a 96-well cell culture plate at a density of 500 cells/well (90 μL/well). The cells were cultured overnight in a 37° C., 5% CO2 incubator. The next day, 10 μL of the compound at different concentrations was added to each well so that the final concentration of DMSO in each well was 0.1%. The mixture was cultured in a 37° C., 5% CO2 incubator for 3 days. After the completion of culture, 50 μL of detection solution (Cell Viability Assay, Promega, G7573) was added to each well. The mixture was mixed uniformly for 2 minutes and incubated at room temperature for 10 minutes. The chemiluminescence reading was detected by a microplate reader. The results were processed according to formula (1), the proliferation inhibition rate of the compound at different concentrations was calculated, and the IC50 value of the compound with an inhibition rate of 50% was calculated using origin9.2 software, wherein RLUcompound was the readout of the treated group, and RLUcontrol was the average value of the solvent control group.

[3] = tested on: MOLP8 cells; assay: MOLP8 cell proliferation inhibition assay; format: cell-based, human; conditions: MOLP8 cells (EphA2 negative cell), incubated 5 days
Protocol: Human multiple myeloma MOLP8 cells purchased from DSMZ were placed in complete RPMI-1640 medium (supplemented with 20% fetal bovine serum) and cultured at 37° C. and 5% CO2. The cells in the exponential growth phase were collected, and the cell suspension was adjusted to 8000 cells/135 μL with the culture medium. 135 μl of the cell suspension was added to each well of a 96-well cell culture plate and incubated overnight. The next day, compounds at different concentrations were added, and the plate was placed in the incubator and incubated for 5 days. After the completion of culture, according to operation instructions for a CellTiter-Glo kit (Promega, Cat #G7573), 75 μL of CTG solution, which was already pre-melted and equilibrated to room temperature, was added to each well, and the mixture was uniformly mixed for 2 minutes using a microplate shaker. The plate was placed at room temperature for 10 minutes, and then […] signal values were measured using an Envision 2104 plate reader (PerkinElmer). The cell proliferation inhibition rate was calculated according to the formula [(1−(RLUcompound−RLUblank)/(RLUcontrol−RLUblank))×100%]. The IC50 value was obtained by four-parameter nonlinear fitting using GraphPad Prism software.

[4] = Pharmacokinetic test in rats; design: species or system SD rats; conditions: in vivo, iv, rat plasma, i.v. 1 mg/kg, analyte PDC
Protocol: 3.1 Experimental animals: male SD rats, about 220 g, 6-8 weeks old, 3 rats/compound. Purchased from Chengdu Ddossy Experimental Animals Co., Ltd.
3.2 Experimental design: on the day of the test, 3 SD rats were randomly grouped according to their body weights. The animals were fasted with water available for 12 to 14 h one day before the administration, and were fed 4 h after the administration.
Before and after the administration, 0.15 m1 of blood was taken from the orbit of the animals under isoflurane anesthesia and placed in an EDTAK2 centrifuge tube. The blood was centrifuged at 5000 rpm and 4° C. for 10 min to collect plasma. The blood collection time points for the intravenous administration group and intragastric administration group were: 0, 5 min, 15 min, 30 min, 1 h, 2 h, 4 h, 6 h, 8 h and 24 h. Before analysis and detection, all samples were stored at −80° C., and a quantitative analysis of samples was performed using LC-MS/MS.

[5] = Pharmacokinetic test in monkeys; conditions: cynomolgus monkey, in vivo, iv, monkey plasma; for AUC(0-t) / Cmax / half-life: 1 mg/kg
Protocol: 4.1 Experimental animals: male cynomolgus monkeys, 3-5 kg, 3-6 years old, 3 monkeys/compound. Purchased from Suzhou Xishan Biotechnology Inc.
4.2 Experimental method: on the day of the test, 3 monkeys were randomly grouped according to their body weights. The animals were fasted with water available for 14 to 18 h one day before the administration, and were fed 4 h after the administration.
Solvent for intravenous administration: 5% DMA+95% (20% SBE-CD).
Before and after the administration, 1.0 mL of blood samples were drawn from the limb veins and placed in an EDTAK2 centrifuge tube. Centrifugation was carried out at 5000 rpm at 4° C. for 10 min, and the plasma was collected. The blood collection time points for the intravenous administration group were: 0, 2 min, 5 min, 15 min, 30 min, 1 h, 2 h, 4 h, 6 h, 8 h, and 24 h. Before analysis and detection, all samples were stored at −80° C., and a quantitative analysis of samples was performed using LC-MS/MS.

[6] = i.v. 1 mg/kg of compound 4, analyte MMAE

CC[C@H](C)[C@@H]([C@@H](CC(=O)N1CCC[C@H]1[C@H](OC)[C@@H](C)C(=O)N[C@H](C)[C@@H](O)c1ccccc1)OC)N(C)C(=O)[C@@H](NC(=O)[C@H](C(C)C)N(C)C(=O)OCc1ccc(NC(=O)[C@H](CCCNC(N)=O)NC(=O)[C@@H](NC(=O)CCCC(=O)NCCC(=O)N(C)CC(=O)N(C)CC(=O)N(C)CC(=O)N(C)CC(=O)N(C)CC(=O)N(C)CC(=O)N(C)CC(=O)N(C)CC(=O)N(C)CC(=O)N(C)CC(=O)N[C@@H](C)C(=O)N[C@@H](CCCCNC(=N)N)C(=O)N[C@@H](CC(=O)O)C(=O)N[C@H]2CCSCCC(=O)N3CN4CN(C3)C(=O)CCSC[C@H](NC(=O)[C@H](CC(C)C)NC(=O)[C@@H]3CCCN3C(=O)[C@H](CC(N)=O)NC(=O)[C@H](C(C)C)NC(=O)[C@H](CC(C)C)NC(=O)[C@@H]3C[C@@H](O)CN3C2=O)C(=O)N[C@@H](CC(C)C)C(=O)N[C@@H](Cc2c[nH]cn2)C(=O)N2CCC[C@H]2C(=O)N[C@H](CC(=O)O)C(=O)N[C@@H](Cc2c[nH]c3ccccc23)C(=O)N[C@@H](CCCCNC(=N)N)C(=O)N[C@H](C(N)=O)CCSCCC4=O)C(C)C)cc1)C(C)C [Compound 13] (I: [Sar][Sar][Sar][Sar][Sar][Sar][Sar][Sar][Sar][Sar]A[hArg]D[hCys][Hyp]LVNPLCLHP[dD]W[hArg][hCys]-NH2 / II: V[Cit][PABC][NMeV]V[Dil][Dolaproine]-X1; linker I:14-I:21-I:28 via TATA; linker I:N-II:N via X2)
tolerability [1]: well tolerated

CC[C@H](C)[C@@H]([C@@H](CC(=O)N1CCC[C@H]1[C@H](OC)[C@@H](C)C(=O)N[C@H](C)[C@@H](O)c1ccccc1)OC)N(C)C(=O)[C@@H](NC(=O)[C@H](C(C)C)N(C)C(=O)OCc1ccc(NC(=O)[C@H](CCCNC(N)=O)NC(=O)[C@@H](NC(=O)CCCC(=O)NCCC(=O)N(C)CC(=O)N(C)CC(=O)N(C)CC(=O)N(C)CC(=O)N(C)CC(=O)N(C)CC(=O)N(C)CC(=O)N(C)CC(=O)N(C)CC(=O)N(C)CC(=O)N[C@@H](C)C(=O)N[C@@H](CCCCNC(=N)N)C(=O)N[C@@H](CC(=O)O)C(=O)N[C@H]2CSCCC(=O)N3CN4CN(C3)C(=O)CCSC[C@H](NC(=O)[C@H](CC(C)C)NC(=O)[C@@H]3CCCN3C(=O)[C@H](CC(N)=O)NC(=O)[C@H](C(C)C)NC(=O)[C@H](CC(C)C)NC(=O)[C@@H]3C[C@@H](O)CN3C2=O)C(=O)N[C@@H](CC(C)C)C(=O)N[C@@H](Cc2c[nH]cn2)C(=O)N2CCC[C@H]2C(=O)N[C@H](CC(=O)O)C(=O)N[C@@H](Cc2c[nH]c3ccccc23)C(=O)N[C@@H](CCCCNC(=N)N)C(=O)N[C@H](C(N)=O)CCSCCC4=O)C(C)C)cc1)C(C)C [Compound 2] (I: [Sar][Sar][Sar][Sar][Sar][Sar][Sar][Sar][Sar][Sar]A[hArg]DC[Hyp]LVNPLCLHP[dD]W[hArg][hCys]-NH2 / II: V[Cit][PABC][NMeV]V[Dil][Dolaproine]-X1; linker I:14-I:21-I:28 via TATA; linker I:N-II:N via X2)
IC50 ([2]; read-out: IC50 value): 3.1 nM | tolerability [1]: well tolerated

CC[C@H](C)[C@@H]([C@@H](CC(=O)N1CCC[C@H]1[C@H](OC)[C@@H](C)C(=O)N[C@H](C)[C@@H](O)c1ccccc1)OC)N(C)C(=O)[C@@H](NC(=O)[C@H](C(C)C)N(C)C(=O)OCc1ccc(NC(=O)[C@H](CCCNC(N)=O)NC(=O)[C@@H](NC(=O)CCCC(=O)NCCC(=O)N(C)CC(=O)N(C)CC(=O)N(C)CC(=O)N(C)CC(=O)N(C)CC(=O)N(C)CC(=O)N(C)CC(=O)N(C)CC(=O)N(C)CC(=O)N(C)CC(=O)N[C@@H](C)C(=O)N[C@@H](CCCCNC(=N)N)C(=O)N[C@@H](CC(=O)O)C(=O)N[C@H]2CCSCCC(=O)N3CN4CN(C3)C(=O)CCSC[C@H](NC(=O)[C@H](CC(C)C)NC(=O)[C@@H]3CCCN3C(=O)[C@H](CC(N)=O)NC(=O)[C@H](C(C)C)NC(=O)[C@H](CC(C)C)NC(=O)[C@@H]3C[C@@H](O)CN3C2=O)C(=O)N[C@@H](CC(C)C)C(=O)N[C@@H](Cc2c[nH]cn2)C(=O)N2CCC[C@H]2C(=O)N[C@H](CC(=O)O)C(=O)N[C@@H](Cc2c[nH]c3ccccc23)C(=O)N[C@@H](CCCCNC(=N)N)C(=O)N[C@H](C(N)=O)CSCCC4=O)C(C)C)cc1)C(C)C [Compound 4] (I: [Sar][Sar][Sar][Sar][Sar][Sar][Sar][Sar][Sar][Sar]A[hArg]D[hCys][Hyp]LVNPLCLHP[dD]W[hArg]C-NH2 / II: V[Cit][PABC][NMeV]V[Dil][Dolaproine]-X1; linker I:14-I:21-I:28 via TATA; linker I:N-II:N via X2)
IC50 ([2]; read-out: IC50 value): 2.9 nM | IC50 [3]: 144 nM | AUC(0-t) [4]: 1470 ng·h/mL | Cmax [4]: 6530 ng/mL | clearance [4]: 11 mL/min/kg | half-life [4]: 16.3 min | Vd ([4]; read-out: Vdss): 0.233 L/kg | AUC(0-t) [5, 6]: 20.8 ng·h/mL | Cmax [5, 6]: 3.71 ng/mL | half-life [5, 6]: 1460 min | AUC(0-t) ([5]; i.v. 1 mg/kg, analyte PDC): 3030 ng·h/mL | Cmax ([5]; i.v. 1 mg/kg, analyte PDC): 7630 ng/mL | half-life ([5]; i.v. 1 mg/kg, analyte PDC): 38.6 min | clearance ([5]; i.v. 1 mg/kg, analyte PDC): 5.57 mL/min/kg | Vd ([5]; i.v. 1 mg/kg, analyte PDC, read-out: Vdss): 0.179 L/kg | tolerability [1]: well tolerated

I: [Sar][Sar][Sar][Sar][Sar][Sar][Sar][Sar][Sar][Sar]A[hArg]D[hCys][Hyp]LVNPLCLHP[dD]W[hArg]C-NH2 / II: V[Cit][PABC][NMeV]V[Dil][Dolaproine]-X1 / III: V[Cit][PABC][NMeV]V[Dil][Dolaproine]-X1 (linker I:14-I:21-I:28 via TATA; linker I:N-II:N-III:N via X3) [Compound 17]
Max inh. % 10 μM ([2]; 10 μM): 69.4% | IC50 ([2]; cultured 3 days with compound, read-out: IC50): ≤ 10 nM | IC50 ([2]; read-out: IC50 value): 1 nM
